The record followed here is the nanobody polyreactivity screen of Harvey et al. (2022).

The data set can be described thus: yeast display, Sf9 membrane polyspecificity reagent, FACS + sequencing; frameworks hold sequencing errors. A digest of the protocol: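 Nanobodies came from a synthetic yeast display library in Saccharomyces cerevisiae BJ5465, induced with galactose for 36–48 hours and stained for 1 hour at 4 °C with 10% biotinylated, detergent-solubilized Sf9 membrane reagent. Cells were enriched on streptavidin microbeads and then FACS-sorted, with low and high (top ~1%) gates set on anti-HA fluorescence for expression and streptavidin fluorescence for reagent binding. Each polyreactivity label reflects the gate a clone came from. Genes were amplified by colony PCR, sequenced by MiSeq 2 × 250 and filtered by CDR length.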
As to “QVQLVESGGGLVQAGGSLRLSCAASGSTFDGYAMGWYRPAPGKERELVAGISTSGGSTYYADSVKGRFTISRDNAKNTVYLQMNSLKPEDSAVYYCAAEWFDQVKDPAADYISYEYWGQGTQVTVSS”, the “polyreactivity (PSR sort gate)” value is “low polyreactivity”.
In the case of “QVQLVESGGGLVQAGGSLRLSCAASGSTFDGYAMGWYRQAPAKERELVAAISRSGGRTYYADSVNGRFTISRDNAKITVYLQMNSLKPEDTAFYYCAAMYTYKREDYWGQGTQVTVSS”, the “polyreactivity (PSR sort gate)” value is on record as “high polyreactivity”.
With “QVQLVESGGGLVQAGGSLRLSCAASGSTFDGYAMGWYRQAPGKERELVAAITSSSTSTYYADSVKGRFTISRDNAKNTVYLQMNSLKPEDTAVYYCAAQYFSYISVYSFYTMGYWGQGTQVTVSS” the entry was “low polyreactivity”.
In the case of “QVQLVESGGGLVQAGGSLRLSCAASGSTFDINAMGWYRQAPGKERELVAAINSDARTNYADSVKGRFTISRDNAKNTVYLLMNSLKPEDTAVYYCATDTSHSTYQYGYWGQGTQVSVSS”, the “polyreactivity (PSR sort gate)” value is “low polyreactivity”.
Take “QVQLVESGGGLVQAGGSLRLSCAASGSTFDINAMGWYRQAPGKERELVAAITSGGGTNYADSVKGRFTISRDNAKNTVYLQMNSMKPEDTAVYYCAARVRGKYDYWGQGTQVTVSS”: the “polyreactivity (PSR sort gate)” value is on record as “high polyreactivity”.
For “QVQLVESGGGLVQAGGSLRLSCAASGSTFDIYAMGWYRQAPGKERELVAAIRGRGGSTYYADSVKGRFTISRDNAKNTVSLQMNSLKPEDTAVYYCAAQTKRQRREFGFWGQGTQVTVSS”, the “polyreactivity (PSR sort gate)” value was “high polyreactivity”.
Consider “QVQLVESGGGLVQAGGSLRLSCAASGSTFDIYAMGWYRQAPGKESELVAAISGSSTRTYYADSVKGRFTISRDNAKYTVYLQMNSLKPEDTPGYYCVGRFYERDYWGQGTQVTVSS”, for which the “polyreactivity (PSR sort gate)” value is on record as “high polyreactivity”.
Regarding “QVQLVESGGGLVQAGGSLRLSCAASGSTFDIYVMGWYRQAPGKERELVAAISRVGNTSYADSVKGRFTISRDNAKNTVYLQMNSLKPEDTAVYYCAADAPSWYDRQYDYWGQGTQVTVSS”, the “polyreactivity (PSR sort gate)” value was “low polyreactivity”.
As to “QVQLVESGGGLVQAGGSLRLSCAASGSTFDLYAMGWYRQAPGKERELVAGISRGGSTYYADSVKGRFTISRDNAKNTVYLQMNSLKPEDTAVYYCAAYFRYRSSRYGYWGQGTQVTVSS”, the “polyreactivity (PSR sort gate)” value is “high polyreactivity”.
With “QVQLVESGGGLVQAGGSLRLSCAASGSTFDNYAMGWYRQAPGKERELVAAISYSGGSTHYADSVKGRFTISRDNAKNTVYLQMNSLKPEDTAVYYCAADVSGDKGSIHMNYWGQGTQVTVSS”, the “polyreactivity (PSR sort gate)” value is reported as “low polyreactivity”.
The value for “QVQLVESGGGLVQAGGSLRLSCAASGSTFDPNAMGWYRQAPGKERELVASITSRGGSTYYADSVKGRFTISRDNAKNTVYLQMNSLKPEDTAVYYCAAVGGATYSWNGYSWYAWHNYWGQGTQVTVSS” was “low polyreactivity”; that for “QVQLVESGGGLVQAGGSLRLSCAASGSTFDPNTMGWYRQAPGKDRELVAAITSSTASTYYADSVKGRFTISRDNAKNTVYLQMNSLKPEDTAVYYCAADSEQDNLRYYRWVWYYYWGQGTQVTVSS” was “low polyreactivity”; that for “QVQLVESGGGLVQAGGSLRLSCAASGSTFDPYAMGWYRQAPGKERELVAAITSGGGTKYADSVKGRFTISRDNAKNTVYLQMNSLKPEDTAVYYCATDIRAEHGYWGQGTQVTVSS” was “low polyreactivity”.
With “QVQLVESGGGLVQAGGSLRLSCAASGSTFDPYAMGWYRQAPGKERELVAAITWGGGSTYADSVKGRFTISRDNAKNTVYLQMNSLKPEDTAVYYCAAEYYLWLFEYYVEYDYWGQGTQVTVSS” the entry was “high polyreactivity”; with “QVQLVESGGGLVQAGGSLRLSCAASGSTFDRYAMGWYRQAPGKERELVAAISWSAGRTYYADTVKARFTISRDYAKNTVYLQMNSLKPEDTAVYYCAADQIVSGTYDYYWGQGTQVTVSS”, “low polyreactivity”.
Turning to “QVQLVESGGGLVQAGGSLRLSCAASGSTFDRYAMGWYRQAPGKERELVAAISWSGGSTYYADSVKGRFTISRDNAKNTVYLQMNSLKPEDTAVYYCARRYARITPVYAPLNYWGQGTQVTVSS”, the “polyreactivity (PSR sort gate)” value is listed as “high polyreactivity”.
The value for “QVQLVESGGGLVQAGGSLRLSCAASGSTFDRYAMGWYRQAPGKERELVAAITGSGGRTYYADSVKGRFTISRDNAKNTVYLQMNSLKPEDTAVYYCAARRSGYYLYSVDYWGQGTQVTVST” was “high polyreactivity”; that for “QVQLVESGGGLVQAGGSLRLSCAASGSTFDRYAMGWYRQAPGNERELVAAISSSGGTTYYADSVKGRFTITRDNAKTTVYVQMNSLKPEDTAVYYCAAVRYYESRGGYDYWGQGPQVTVSS” was “low polyreactivity”.
With “QVQLVESGGGLVQAGGSLRLSCAASGSTFDSNDMGWYRQAPGKERELVAGITWSGASTYYADSVKGRFTISRDNAKNTVYLQMNSLKPEDTAVYYCAAGPWGTGHYVQGPVYYYRYDYWGQGTQVTVSS” the entry was “low polyreactivity”; with “QVQLVESGGGLVQAGGSLRLSCAASGSTFDSYAMGWYRQAPGKERELVAAISRSGGRTYYADSVKGRFTISRDNAKNTVYLQMNSLKPEDTAVYYCNAAYKRWVTPGYDAYDYWGQGTQVTVSS”, “high polyreactivity”.
With “QVQLVESGGGLVQAGGSLRLSCAASGSTFDSYAMGWYRQDPGKERELFAAITYSGGRTYYADSVKGRFTISRDNAKNTVYLQMNSLKPEDTAVYYCAATGVFRDEYWGQGTQVTVSS” the entry was “low polyreactivity”; with “QVQLVESGGGLVQAGGSLRLSCAASGSTFDSYRMGWYRQAPGKERELVASISSRGGSTYYADSVKGRFTISRDNAKNTVSLQMNSLKPEATAVYYCAADWLSWFHGYGMYYWGQGTQVTVSS”, “low polyreactivity”; with “QVQLVESGGGLVQAGGSLRLSCAASGSTFDTNAMGWYRQPPGKERELVASISSAGSTNYADSVKGRFTISRDNAKNTVYLQMNSLKPEDTAVYYCAKYYGQFYPTTLGYWGQGTQVTVSS”, “low polyreactivity”.
“QVQLVESGGGLVQAGGSLRLSCAASGSTFDTYAMGWYRQAPGKEMELVAVISSGGGTYYADSVKGRFTISRDNAKNTVYLQMNSLKPEDTAVYYCAADRPTPYGYESTYDYWGQGTQVTVSS”: the “polyreactivity (PSR sort gate)” value is on record as “low polyreactivity”.
The value for “QVQLVESGGGLVQAGGSLRLSCAASGSTFDTYGMGWYIQAPGKERELDASISSRGGSTYYADSVEGRFTISRDNAKNSVYLQMNSLKPDDTAVYYCAADWLSWFHGYGMYYWGQGTKVTVSS” was “low polyreactivity”; that for “QVQLVESGGGLVQAGGSLRLSCAASGSTFDTYTRGWYRQAPGKERELVAAITTSGGSTYYADSVKGRFTISRDNAKNTVYLQMNSLKPEDTAVYYCAADFFPGGYPEMDYWGQGTQVTVSS” was “high polyreactivity”; that for “QVQLVESGGGLVQAGGSLRLSCAASGSTFDVYAMGWYRQAPGKERELVAAITWIGGSTYYADSVKGRFTISRDNAKNTVYLQMNSLKPEDTAVYYCARHDYGWVDYWGQGTQVTVSS” was “high polyreactivity”.
With “QVQLVESGGGLVQAGGSLRLSCAASGSTFDVYAMGWYRQAPGKERELVAALTSGGTTNYADSVKGRFTISRDNAKNTVYLQMNSLKPEDTAVSYCNARLTLRSYDYWGQGTLVTVSS” the entry was “low polyreactivity”; with “QVQLVESGGGLVQAGGSLRLSCAASGSTFDYNSMGWYRQAPGKERELVATINDSGGNTYYADSVKGRFTISRDNAKNTVYLQMNSLKPEDTAVYYCATVGYLYTPVVVTWWDWGDYWGQGTQVTVSS”, “low polyreactivity”.
Regarding “QVQLVESGGGLVQAGGSLRLSCAASGSTFDYNTMGWYRQAPGKERELVAVITYSGGRTYYADSVKGRFTISRDNAKNTVYLQMNSLKPEDTAVYYCNARYGYPLGHSIYYYWGQGTQVTVSS”, the “polyreactivity (PSR sort gate)” value is recorded as “low polyreactivity”.
The value for “QVQLVESGGGLVQAGGSLRLSCAASGSTFDYYAMGWYRQAPGKERELVAAISRTGGRTYYADSVKGRFTISRDNAKNTVYLQMNSLKPEDTAVYYCNAVTRIGGGDYDYWGQGTQVTGSS” was “low polyreactivity”; that for “QVQLVESGGGLVQAGGSLRLSCAASGSTFDYYAMVWYRQAPGKEREFVAAISYSGGSTYYADSVKGRFTISRDNAKNTVYLQMNSLKPEDTAVYYCAAEGYYYNLYYWGQGTEVTVSS” was “high polyreactivity”; that for “QVQLVESGGGLVQAGGSLRLSCAASGSTFDYYARGGYRQAPGKERELVAAISRTGGRTYYADSVKGRFTISRDNAKNTVNLQMNSLKPEDTAVYNCNAVTRIGGGDYDYWGQGTQVTVSS” was “low polyreactivity”.
With “QVQLVESGGGLVQAGGSLRLSCAASGSTFDYYDRGWFRQAPGKERELVAAISSGGDSTYYADSVKGRFTISRDNEKNTVYLQMNSLKPEDTAVYYCAAAVYYGQSVWYYYWGQGTQVTVSS” the entry was “high polyreactivity”.
In the case of “QVQLVESGGGLVQAGGSLRLSCAASGSTFDYYTIGWYRQAPGKERELVAAISSSGGSTYYADSVKGRFTISRDNAKNTVYLQMNSLKPEDTAVYYCAADPSPYGDEYDYWGQGTQVTVSS”, the “polyreactivity (PSR sort gate)” value is recorded as “low polyreactivity”.
The value for “QVQLVESGGGLVQAGGSLRLSCAASGSTFDYYTMGWYRQAPGKERELVAAISYSGSRTYYADSVKGRFTISRDNAKNTVYLQMNSLKPEDTAVYYCARVASSVWYKQEYSYYNFDYWGQGTQVTVSS” was “high polyreactivity”; that for “QVQLVESGGGLVQAGGSLRLSCAASGSTFEANAMGWYRQAPGKERELVAVITWTGGSTYYADSVKGRFTISRDNAKNTVYLQMNSLKPEDTAVDYCAADGVVPGRFFWPAHEYDYWGQGTQVTVSS” was “low polyreactivity”.
On to “QVQLVESGGGLVQAGGSLRLSCAASGSTFEGNAMVWYRPAPGKERELVAAISSGGRTYYADSVKGRFTISRDNAKNTVYLQMNSLKPEDTAVYYCAAYVRRGFDWGQGTQVTVSS”, for which the “polyreactivity (PSR sort gate)” value is “high polyreactivity”.
The value for “QVQLVESGGGLVQAGGSLRLSCAASGSTFEQNAMGWYRQAPGKEREFVAAITGSGGSTYYADSVKGRFTISRDNAKNTVYLQMNSLKPEDTAVYYCAADIQDGLYWWDIYDYWGQGTQVTVSS” was “low polyreactivity”.
Turning to “QVQLVESGGGLVQAGGSLRLSCAASGSTFEQYAMGWYRQAPGKERELVASISTGGGRTYYADSVKGRFTISRDNAKNTVFLQMNSLKPEDTAVYYCNKRYRGYKTGYSRYDYWGQGTQVTVSS”, the “polyreactivity (PSR sort gate)” value is reported as “low polyreactivity”.
